In paper PMC6051995, “p38-mediated phosphorylation at T367 induces EZH2 cytoplasmic localization to promote breast cancer metastasis” (Nature Communications, 2018):

T1: Recombinant vinculin protein (UniProt P18206-2 1-1066)
T1 construct: vinculin, recombinant; The BLI methods describe EZH2 and p38α but say nothing of the vinculin protein
T1 sequence (looked up): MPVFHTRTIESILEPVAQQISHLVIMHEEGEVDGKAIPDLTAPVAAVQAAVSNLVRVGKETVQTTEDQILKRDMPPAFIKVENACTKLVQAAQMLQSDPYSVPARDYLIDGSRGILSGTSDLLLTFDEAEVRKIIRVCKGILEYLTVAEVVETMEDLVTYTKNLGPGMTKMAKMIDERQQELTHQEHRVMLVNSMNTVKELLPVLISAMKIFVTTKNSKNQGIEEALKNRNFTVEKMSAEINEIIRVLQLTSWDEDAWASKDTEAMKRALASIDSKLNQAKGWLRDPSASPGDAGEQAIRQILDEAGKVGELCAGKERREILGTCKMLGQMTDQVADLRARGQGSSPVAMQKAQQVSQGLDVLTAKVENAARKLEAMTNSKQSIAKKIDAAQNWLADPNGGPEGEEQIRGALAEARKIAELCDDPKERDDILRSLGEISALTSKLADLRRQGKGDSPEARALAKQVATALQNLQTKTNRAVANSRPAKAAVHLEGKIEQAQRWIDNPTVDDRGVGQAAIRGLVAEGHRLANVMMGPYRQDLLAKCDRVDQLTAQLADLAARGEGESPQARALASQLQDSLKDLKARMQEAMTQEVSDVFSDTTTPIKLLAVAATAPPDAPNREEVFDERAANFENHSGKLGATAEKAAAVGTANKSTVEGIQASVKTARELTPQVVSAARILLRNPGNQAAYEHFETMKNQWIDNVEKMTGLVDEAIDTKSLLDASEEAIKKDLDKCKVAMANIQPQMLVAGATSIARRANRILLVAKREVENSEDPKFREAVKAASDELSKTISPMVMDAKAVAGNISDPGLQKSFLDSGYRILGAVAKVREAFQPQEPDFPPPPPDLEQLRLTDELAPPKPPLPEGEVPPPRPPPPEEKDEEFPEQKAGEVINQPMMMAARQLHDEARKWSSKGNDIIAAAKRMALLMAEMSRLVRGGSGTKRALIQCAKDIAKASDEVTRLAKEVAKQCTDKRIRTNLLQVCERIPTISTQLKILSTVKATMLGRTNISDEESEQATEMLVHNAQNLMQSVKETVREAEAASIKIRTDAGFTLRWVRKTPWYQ

B1: Recombinant EZH2 (GST-EZH2 aa 2-end) (natural protein)
chain: not shown
modifications: biotin (Sulpho-NHS-LC-biotin, protein and biotin mixed 1:1 molar ratio)
notes: EZH2 (Enhancer of zeste homolog 2), aa 2-end; GST-EZH2 MW = 114 kDa; The vendor is printed only as 'Bioscience'; also called Enhancer of zeste homolog 2; immobilized EZH2; source: bought: Bioscience (recombinant)
B2: vinculin (endogenous) (natural protein, human (endogenous in MDA-MB-231), UniProt P18206-2 1-1066, looked up)
chain: MPVFHTRTIESILEPVAQQISHLVIMHEEGEVDGKAIPDLTAPVAAVQAAVSNLVRVGKETVQTTEDQILKRDMPPAFIKVENACTKLVQAAQMLQSDPYSVPARDYLIDGSRGILSGTSDLLLTFDEAEVRKIIRVCKGILEYLTVAEVVETMEDLVTYTKNLGPGMTKMAKMIDERQQELTHQEHRVMLVNSMNTVKELLPVLISAMKIFVTTKNSKNQGIEEALKNRNFTVEKMSAEINEIIRVLQLTSWDEDAWASKDTEAMKRALASIDSKLNQAKGWLRDPSASPGDAGEQAIRQILDEAGKVGELCAGKERREILGTCKMLGQMTDQVADLRARGQGSSPVAMQKAQQVSQGLDVLTAKVENAARKLEAMTNSKQSIAKKIDAAQNWLADPNGGPEGEEQIRGALAEARKIAELCDDPKERDDILRSLGEISALTSKLADLRRQGKGDSPEARALAKQVATALQNLQTKTNRAVANSRPAKAAVHLEGKIEQAQRWIDNPTVDDRGVGQAAIRGLVAEGHRLANVMMGPYRQDLLAKCDRVDQLTAQLADLAARGEGESPQARALASQLQDSLKDLKARMQEAMTQEVSDVFSDTTTPIKLLAVAATAPPDAPNREEVFDERAANFENHSGKLGATAEKAAAVGTANKSTVEGIQASVKTARELTPQVVSAARILLRNPGNQAAYEHFETMKNQWIDNVEKMTGLVDEAIDTKSLLDASEEAIKKDLDKCKVAMANIQPQMLVAGATSIARRANRILLVAKREVENSEDPKFREAVKAASDELSKTISPMVMDAKAVAGNISDPGLQKSFLDSGYRILGAVAKVREAFQPQEPDFPPPPPDLEQLRLTDELAPPKPPLPEGEVPPPRPPPPEEKDEEFPEQKAGEVINQPMMMAARQLHDEARKWSSKGNDIIAAAKRMALLMAEMSRLVRGGSGTKRALIQCAKDIAKASDEVTRLAKEVAKQCTDKRIRTNLLQVCERIPTISTQLKILSTVKATMLGRTNISDEESEQATEMLVHNAQNLMQSVKETVREAEAASIKIRTDAGFTLRWVRKTPWYQ
notes: vinculin, endogenous; source: endogenous, MDA-MB-231 (whole cell lysate; fixed cells for PLA)

Assays:
[1] = molecular target: T1, Recombinant vinculin protein; assay: BLI; same experiment as a1 (EZH2 immobilised, 30 °C, HBS-P); steady state analysis of response against concentration; details: both partners purified
[2] = molecular target: T1, Recombinant vinculin protein; assay: BLI; biotinylated GST-EZH2 immobilised on Super Streptavidin (SSA) biosensors; analyte in a concentration series; OctetRED96; 30 °C; HBS-P (10 mM HEPES pH 7.4, 150 mM NaCl, 0.005% tween-20); double referencing; kinetic fit, 1:1 binding model; details: both partners purified
[3] = molecular target: T2, pEZH2(T367) (endogenous EZH2 phosphorylated at T367) (human (endogenous in MDA-MB-231), UniProt Q15910 1-746, phosphothreonine at 367); assay: co-IP; endogenous proteins from whole cell extracts of MDA-MB-231 cells; magnetic Dynabeads with antibody (EZH2, pEZH2 or vinculin); with or without doxycycline to induce MKK6EE and p38 activation; details: partners not purified
T2 construct: EZH2, endogenous, phosphorylated at T367 by p38; also called phosphorylated EZH2 (T367); source: endogenous, MDA-MB-231 (whole cell extracts; fixed cells for PLA)
T2 sequence (Q15910 whole entry): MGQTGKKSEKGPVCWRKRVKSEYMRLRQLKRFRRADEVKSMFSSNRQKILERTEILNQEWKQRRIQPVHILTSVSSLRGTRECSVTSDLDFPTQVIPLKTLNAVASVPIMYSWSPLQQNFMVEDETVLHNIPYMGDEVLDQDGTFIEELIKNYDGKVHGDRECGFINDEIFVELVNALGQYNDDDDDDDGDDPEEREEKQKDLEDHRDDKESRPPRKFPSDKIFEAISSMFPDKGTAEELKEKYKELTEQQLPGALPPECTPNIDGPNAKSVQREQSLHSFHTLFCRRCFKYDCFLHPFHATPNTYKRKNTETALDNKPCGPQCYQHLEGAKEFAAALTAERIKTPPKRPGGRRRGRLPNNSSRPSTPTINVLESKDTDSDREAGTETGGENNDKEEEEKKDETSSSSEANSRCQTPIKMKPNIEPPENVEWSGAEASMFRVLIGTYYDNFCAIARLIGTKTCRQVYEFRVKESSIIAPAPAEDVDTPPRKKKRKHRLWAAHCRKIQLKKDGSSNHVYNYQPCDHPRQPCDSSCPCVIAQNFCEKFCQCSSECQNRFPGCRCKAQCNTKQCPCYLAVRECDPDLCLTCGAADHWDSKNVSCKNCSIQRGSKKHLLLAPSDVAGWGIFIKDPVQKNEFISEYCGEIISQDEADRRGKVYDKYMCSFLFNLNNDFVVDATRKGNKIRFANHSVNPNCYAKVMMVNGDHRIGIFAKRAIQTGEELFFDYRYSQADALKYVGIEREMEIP

| Binder | Kd [1] | Kd [2] | koff [2] | kon [2] | fold increase of binding on p38 activation against uninduced controls [3] |
| --- | --- | --- | --- | --- | --- |
| B1 | 42 nM | 15 nM | 0.00385 s⁻¹ | 294000 M⁻¹ s⁻¹ | – |
| B2 | – | – | – | – | ~10 fold |
